Measurements published in the supplement of paper PMC12042874.
± gives the uncertainty stated by the source.

Experiment: amyloid nucleation score (Sup35N fusion, yeast selection) (log enrichment); library NNK2; higher = more nucleation; inactive = no reads after selection
Summary of the method: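 In psi-negative yeast, Sup35N fusions carrying peptides of 20 random codons were induced with 100 μM copper sulfate for 24 hours. The cells then grew 7 days at 30°C on medium lacking adenine and uracil, and plasmid inserts from input and output were Illumina-sequenced, excluding sequences with under 100 input reads. Nucleation score is the DiMSum log enrichment of output over input reads, centred on the mode score of non-aggregating sequences.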

Substance | amyloid nucleation score
DAVFGTCSLFCRTCAKASFG | 1.58 ± 0.25
DCCRWSVLVVIVLAARSSMS | 3.17 ± 0.099
DCIHCSRTNAADWMGYVFGY | 4.82 ± 0.085
DCLYGRFRHRHG | 5.723 ± 0.035
DCMLNGLRWEMMLYKLDCFT | 0.189 ± 0.64
DCMTMINLICNGMPAICRMT | 0.445 ± 0.18
DCQVSTLAYWSRVKMFQYQK | 3.71 ± 0.077
DCSDPCGSAPKDLSTKTVRC | 1.61 ± 0.26
DDCKQRTHNDYMD | 0.175 ± 0.37
DDSHLNCDNRIVISMLRNGN | 0.528 ± 0.32
DEMARVYIHY | 0.183 ± 0.74
DFDVEA | -0.176 ± 1.1
DFIMFLAGPNSVNYNVVLYF | 7.437 ± 0.055
DFINIPSVFIIYMK | 1.73 ± 0.13
DFKDEGYQRRV | -0.37 ± 0.65
DFLSGTMVDETSDKGISLLV | 0.605 ± 0.47
DFLVYCGLLEQLWLLSDAKC | -0.356 ± 1.1
DFMRDFWKDSDNQEVFLLPI | -0.885 ± 0.44
DFSMIGSEKVAPGKNPDASL | 0.22 ± 0.57
DGCLARGYNKGVHDGVVEYL | -0.088 ± 1.1
DGDNNCMCS | 0.404 ± 0.48
DGHVELCISAKDYD | -0.249 ± 0.53

Substance | amyloid nucleation score
DGLARAYAARM | 1.53 ± 0.29
DGPNYILQVFCCMMVNVCGC | 7.609 ± 0.061
DGPWYYTVRAEIQPM | 3.78 ± 0.079
DGRKALI | 1.87 ± 0.35
DHPYTRKFI | -0.311 ± 0.79
DHRIWKAAREVVLVCHL | 0.629 ± 0.4
DIDAIYTFRACGDMPSHFRR | -0.172 ± 0.35
DIIVYM | inactive
DILMLNRSVGDIREAISVNG | 0.48 ± 0.51
DIMTYPLRSINRRFKGVGRR | 4.481 ± 0.039
DIPLSSAKAYI | 0.443 ± 0.8
DIVRSYV | -0.27 ± 0.45
DIWKTQ | 0.218 ± 0.8
DIWYLICLSQSSGLFLVGVM | -0.55 ± 0.79
DKSCLISVMLICLL | 5.21 ± 0.059
DKSIR | 0.239 ± 0.33
DKSNGVTMVESITSGG | -0.303 ± 0.56
DLGDKFL | 1.67 ± 0.23
DLGHLTLISKFKFNESSAEH | -0.221 ± 1.1
DLGMECTQVGRLDVVWELLI | 0.632 ± 0.31
DLHWA | 0.595 ± 0.28
DLLVCC | 1.28 ± 0.26

Substance | amyloid nucleation score
DLSISSLGFQNIVLSHDNGY | -1.13 ± 1.1
DMCDYQSVGF | inactive
DMRFYMVLA | 4.94 ± 0.051
DMSFQDIIMP | -0.931 ± 0.54
DMYWCIYDRFMSLSWKT | -0.597 ± 0.53
DNKSCFTNVWNYNVTEHWGH | -1.4 ± 0.54
DNNTIWD | 0.94 ± 0.23
DNVKVWSGFTRY | -0.148 ± 0.49
DPPSSFEFMCLRLWV | 3.35 ± 0.085
DQESRNSVFSGKGGRRDVSS | -0.134 ± 0.37
DQSTSFFIFYNQTNWSMLFP | 6.12 ± 0.056
DRAGLATLNSLELGDDGFLG | -1 ± 0.78
DRLGTYSS | 0.409 ± 0.54
DRNVTESMGYVWTASWGAY | 0.366 ± 0.41
DRQCK | 0.445 ± 0.32
DRSFVETREVACVVMYTSVF | -0.395 ± 0.61
DRVFLFFKKRPGPWMMARLY | inactive
DRVNGYIIGRLTAYTSVSKD | -0.317 ± 1.1
DRVQG | 1.2 ± 0.22
DRWGFDFCQLLV | 1.95 ± 0.12
DRWLVFPSNRPVFVMDRFNG | -0.414 ± 0.64
DRYVSV | 0.455 ± 0.43

Substance | amyloid nucleation score
DSACFYENSM | -0.48 ± 0.79
DSFASTQYCAVSSSVQLAWQ | 1.45 ± 0.27
DSGFGSW | -0.807 ± 0.74
DSGLMSFVCNVDPKCVCFVN | 7.968 ± 0.075
DSGLSHSNQWVDFSEYPTRL | inactive
DSGNDLCDNYPVCWVKFCYC | 5.2 ± 0.063
DSIFFYTGMQTDYHAHMSPC | inactive
DSKWIM | -0.326 ± 0.46
DSRMRWL | 0.149 ± 0.27
DSTVRPMRGGECNAGVAGKE | 0.794 ± 0.24
DSWSAVYTNISELAIGGCHG | -0.055 ± 1.1
DTFINWIWRGYGKWMCSGRR | -0.135 ± 0.39
DTLCYNRMWFLPGLKMDLGG | 7.62 ± 0.054
DTWTYVAWFLYIIICSRQTE | -0.623 ± 0.35
DVAYSYRHECIADKLLRVEH | 0.019 ± 0.55
DVHNMGSPGVLAMLVTSDGK | 0.876 ± 0.74
DVHTVCASSKHHLRVVKAVT | 0.494 ± 0.8
DVKDDKLFNCLDVVMWVGNL | -0.058 ± 0.15
DVKSYTITYSLSFHVMSVII | 2.72 ± 0.21
DVNISASNEVALIASDRLLC | -0.149 ± 0.55
DVQWTGPRPFPFV | 0.679 ± 0.4
DVRVISNDNAWDDLRLYFDK | 0.36 ± 0.3
